Reference: publication PMC2593004, “Evolutionary Diversification of Plant Shikimate Kinase Gene Duplicates” (PLoS Genetics, 2008)

B1: AtSK2Δ55 (Arabidopsis thaliana) (protein)
chain: LRSVSDKNSSALLETGSLLHSPFDEEQQILKKKAEEVKPYLNGRSMYLVGMMGSGKTTVGKIMARSLGYTFFDCDTLIEQAMKGTSVAEIFEHFGESVFREKETEALKKLSLMYHQVVVSTGGGAVIRPINWKYMHKGISIWLDVPLEALAHRIAAVGTGSRPLLHDDESGDTYTAALNRLSTIWDARGEAYTKASARVSLENITLKLGYRSVSDLTPAEIAIEAFEQVQSYLEKEDGMARPDGL
notes: predicted N-terminal chloroplast transit peptide removed (55 residues truncated)
B2: AtSK1Δ55 (Arabidopsis thaliana) (protein)
chain: DQRRAVSPAVSCSDNNSSALLETGSVYPFDEDILKRKAEEVKPYLNGRSMYLVGMMGSGKTTVGKLMSKVLGYTFFDCDTLIEQAMNGTSVAEIFVHHGENFFRGKETDALKKLSSRYQVVVSTGGGAVIRPINWKYMHKGISIWLDVPLEALAHRIAAVGTDSRPLLHDESGDAYSVAFKRLSAIWDERGEAYTNANARVSLENIAAKRGYKNVSDLTPTEIAIEAFEQVLSFLEKEETMEIPDGDL
notes: as for B1

Experiments:
purified protein [1] = substrate: Nc1ncnc2c1ncn2[C@@H]1O[C@H](COP(=O)(O)OP(=O)(O)OP(=O)(O)O)[C@@H](O)[C@H]1O; experiment: purified protein; assay type: biochemical, Arabidopsis thaliana; settings: apparent Km, 2.5 mM shikimate fixed, 100 mM Tris-HCl pH 8.0, 25°C
purified protein [2] = substrate: O=C(O)C1=C[C@@H](O)[C@@H](O)[C@H](O)C1; experiment: purified protein; assay type: biochemical, Arabidopsis thaliana; settings: apparent Km, 2.5 mM ATP fixed, 100 mM Tris-HCl pH 8.0, 25°C

Row | Protein | Km (purified protein [1]) [µM] | kcat (purified protein [1]) [s⁻¹] | Km (purified protein [2]) [µM] | kcat (purified protein [2]) [s⁻¹]
1 | B1 | 246.7 ± 22.56 | 149 ± 5.04 | 422.15 ± 31.16 | 136 ± 4.97
2 | B2 | 218.02 ± 12.27 | 162 ± 3.01 | 648.32 ± 23.45 | 148 ± 2.32
